Values of other authors, collected in PMC11346460.
pKd: −log10 of the molar value.

Molecular target: RIG-I (Homo sapiens) (UniProt O95786)
Chain of UniProt O95786 (O95786 whole entry): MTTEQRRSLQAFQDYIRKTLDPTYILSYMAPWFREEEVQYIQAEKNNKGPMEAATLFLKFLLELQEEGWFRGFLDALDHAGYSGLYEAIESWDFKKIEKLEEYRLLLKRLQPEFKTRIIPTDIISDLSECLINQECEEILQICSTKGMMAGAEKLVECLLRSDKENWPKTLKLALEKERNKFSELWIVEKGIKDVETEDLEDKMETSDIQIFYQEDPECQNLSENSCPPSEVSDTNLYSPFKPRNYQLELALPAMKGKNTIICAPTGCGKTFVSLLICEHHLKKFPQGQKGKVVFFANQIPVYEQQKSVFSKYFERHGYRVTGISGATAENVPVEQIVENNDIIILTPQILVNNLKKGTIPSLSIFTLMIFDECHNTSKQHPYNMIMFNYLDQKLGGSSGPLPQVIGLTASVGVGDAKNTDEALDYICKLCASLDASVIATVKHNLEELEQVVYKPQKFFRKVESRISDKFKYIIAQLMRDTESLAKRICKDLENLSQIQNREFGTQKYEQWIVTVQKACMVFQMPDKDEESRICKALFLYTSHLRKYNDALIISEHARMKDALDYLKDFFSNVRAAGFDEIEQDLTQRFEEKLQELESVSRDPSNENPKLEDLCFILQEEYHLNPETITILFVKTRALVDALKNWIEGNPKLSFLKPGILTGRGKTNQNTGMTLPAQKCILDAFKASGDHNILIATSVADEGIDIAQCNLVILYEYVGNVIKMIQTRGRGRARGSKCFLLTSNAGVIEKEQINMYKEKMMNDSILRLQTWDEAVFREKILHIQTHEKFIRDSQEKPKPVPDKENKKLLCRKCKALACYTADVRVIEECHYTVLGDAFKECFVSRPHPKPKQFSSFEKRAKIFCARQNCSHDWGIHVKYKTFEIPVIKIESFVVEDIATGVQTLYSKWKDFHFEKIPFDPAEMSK

RIPLET (from UniProt Q8IUD6)
pKd: 8.18
